According to PMC3474183:

Target: lymphocyte-derived soluble LIGHT (TNFSF 14) (human (endogenous in PBMC))
Assay: SEC

Substance: lymphocyte-derived soluble LIGHT (TNFSF 14) (ligand)
- stoichiometry N: 3
